Test results from the RNAGym collection of RNA variant scans (doi:10.1073/pnas.2313332121).

B1: TPR t1 (parent)
chain: GACCAAUCUGCCCUCAGAGCUCGAGAACAUCUUCGGAUGCAGAGGAGGCAGGCUUCGGUGGCGCGAUAGCGCCAACGUCCUCAACCUCCAAUGCAUCCCACCACAUGAUGAUGCCUGAAGAGCCUUGGUUUUUUG

Variants of: B1
Assay: polymerase ribozyme fitness, log enrichment relative to wild type (log ratio); higher = more active; in vitro selection for triplet polymerase activity
Method in brief: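 Each subunit of a heterodimeric triplet polymerase ribozyme was mutagenized into a library by PCR, transcribed, and subjected to one round of in vitro selection, run in triplicate. Libraries were annealed with a biotinylated primer, the partner subunit and triplets, incubated frozen at −7 °C, and extended constructs were gel-excised, captured on streptavidin beads and recovered by RT-PCR. Input and output libraries were sequenced on Illumina, keeping genotypes with ≥10 input reads and ≥1 read per output. Fitness is log base 2 of genotype enrichment divided by wild-type enrichment, from inverse-variance-weighted replicate averages.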

Variant	polymerase ribozyme fitness (log ratio)
GACCAAUCUACCCUCAGAGCUCGAGAACGUCUUCGGAUGCAGAGGAGGCAGGCUUCGGUGGUGCGAUAGCGCCAACGUCCUCAACCUCCAAUGCAUCCCACCACAUGAUGAUACCUGAAGAGCCUUGGUAUUUUG [G10A A29G C62U G113A U130A]	-3.56
GACCAAUCGGCCCUCAGAGCUCGAGAACAUCUUCGGAUGCAGAGGAGGCAGGCUUCGGUGGCGCUAUAGCGCCAACGUCCUCAACCUCCAAUGCAUCCCACCACAUGAUGAUGCCUGAAGAGCCUUGGUUUUUUG [U9G G65U]	-5.74
GACCAAUCGGCCCACAGAGCUCGAGAACAUUUUCGGAUGCAGAGGAGGCAGGCUUCGGUGGCGCGAUAUCGCCAACGUCCUCAACCUCCAAUGCAUCCCACCACAUGAUGAUGCCUAAAGAGCCUUCGUUUUUUG [U9G U14A C31U G69U G117A G127C]	-4.64
GACCAAUCGGCCCUCAGAGCUCGAGAACAUCUUCGGAUGCAGAGGAGGCAGGCUUCGGUGGCGCGAUAGCGCCAACGCCCUCAACCUCUAAUGCAUCCCACCACAUGAUGAUGCCUGAAGAGCCUUGGUUUUUUG [U9G U78C C89U]	-0.533
GACCAAUCUACCCUCAGAGCUCGAGAGCAUGUUCGGAUGCAGAGGAGGCAGGCUUCGGUGGCGCGAUAGCGCCAACGUCCUCAACCUCCAAUGCAUCCCACCACAUCAUGAUGCCUGAAGAGCCUUGGUUUUUUG [G10A A27G C31G G107C]	-2.98
GACCAAUCUACCCUCAGAGCUCGAGAACAUCUUCGGGUGCAGAGGAUGCAGGCUUCGGAGGCGCGAUAGCGCCAACGUCCUCAACCUCCAAUGCAUCCCACCACAUGAUGAUGCCUUAAGAUCCGUGGUUUUUUG [G10A A37G G47U U59A G117U G122U U125G]	-5.7
GACCAAUCGGCCCUCAGAGCUCGAGAACAUCUUCGGAUGCAGAGGAGGCAGGCUUCGGGGGCGCGAUAGCGCCAACGUCCUCAACCUACAAUGCAUCCCACCACAUGAUGAUGCCUGUAGAGCCUUGGUUUUUUG [U9G U59G C88A A118U]	0.424
GACCAAUCGGCCCUCAGAGCUCGAGAACAUCUUCGGAUGCAGAGGAGGCAGGCUUCGGUGGCGCGAUAGCUCCAACGUCCUCAACCUACAAUGCAUCCCACCACAUGAUGAUGCAUGAAGAGCCUUGGUUUUUUG [U9G G71U C88A C115A]	-2.67
GACCAAUCUACCCUCAGAGCUCGAGAACAUCUUCGGAUGCAGAGGAGGCAGGCUUCGGUGGCGCGAUAGCGCCGACGUCCUCAACCUCCACUGCAUCCCACCACAUGAUGAUGCCUGAAGAGCGUUGGUUUUUUG [G10A A74G A91C C124G]	-0.108
GACCAAUCUAACCUCAGCGCUCGAGAACAUCUUCGGAUGCACAAGAGGCAGGCUUCGGUAGCGCGAUAGCGCCAACGUCCUCAACCUCCAAUGCAUCCCAACACAUGAUGAUGCCUGAAGAGCCUUGGUUUUUUG [G10A C11A A18C G42C G44A G60A C101A]	-4.31
GACCAAUCUACCCUCAGAGCUCGAGAACAUCUUCGGAUGCAGUGGAGGCAGGCUUCUGUGGCGCGAUAGCGCCAACGUCCUCAACCUCCAAUGCAUCCCACCACAUGAUGAUGCCUGAAGAGCCUUGGUCUUUUG [G10A A43U G57U U130C]	-1.83
GACCAAUCUAACCGCAGAGCUCGAGAACAUCUUCGGAUGCAGAGGAGGCAGGCCUUGGUGGCGCGAUAGCGCCAACGUCCACAACCUCCAAUGCAUCCCACCACAUGAUGAUGCCUGAAGAGCCUUGGUUUUUUG [G10A C11A U14G U54C C56U U81A]	-2.09
GACCAAUCUACCCUCAGCGCUCGAGAACAUCUUCGGAUGCAGAGGAGGCAGGCUUCGGUGGCGCGAUAGCGCCAACGUCCUCAACCUCCAAUGCAUCCCACCACAUGAUGAUGCCUGAAGAAGCUUGGUUUUUUG [G10A A18C G122A C123G]	-0.417
GACCAAUCGGCCCUCAGAGCUCGAGAACAUCUUCGGAUGCAGAGGAGGCAGGCUUCUGUGGCGCGAUAGCGCCAACGUCCUCAACCUCCAAUGCAACCCACCACAUGAUGAAGCCUGAAGAGCCUUGGUUUUUUG [U9G G57U U96A U112A]	0.146
GACCAAUCGGCCCUCAGAGCUCGAGAACAUCUUCGGAUGCAGAGGAGGCAGGCUUCGGUGGCCCGAUAGCGACAACGUCCUCAACCUCCAAUGCAUCCCACCACAUGAUGAUGCCUGAAGAGCCUUGGUUUUUUG [U9G G63C C72A]	-3.45
GACCAAUCUACCAUCAGAGCUCGAGAACAUCUUCGGAUGCAGAGGAGGGAGGCUUCGGUGGCGCGAUAGCGCCAACGUCCUCACCCUCCAAUGCAUCCCACCACAUGAUGAUGCCUGAAGAGCCUUGGUUUUUUG [G10A C13A C49G A84C]	-0.63
GACCAAUCUACCCUCAGAGCUCGAGAACAUCUUCGGAUGCAGAGGAGGCAGGCUUCGGUGGCGCGAUAGCGCCAACGUCCUCAACCUCCAAUGCAUCCCACCACAUGAUGAUGCCUGAAGAGCCUUGGUUUUUUG [G10A]	0.148
GACCAAUCGGCCCUCAGAGCUCGAGAACAUCUUCGGAUGCAGAGGAGGCAGACUUCGGUGGCGCGAUAGCGCCAACGUCCUCAACCUCCAAUGCAUCCCACCACAUGAUGACGCCUGAAGAGCCUUGGUUUUUUG [U9G G52A U112C]	1.21
GACCAAUCUACUCUCAGAGCUCGAGAACAUCUUCGGAUGCAGAGGAGGCAGGCUUCGGUGGCGCGAUAGCUCCAACGUCCUCAACCUCCAAUGCAUCCCACCACAUGAUGAAGCCUGAAGAGCCUUGGUUUUUUG [G10A C12U G71U U112A]	1.43
GACCAAUCUACCCUCAGAGCUCGAGAACAUCUUCGGAUGCAGAGGAGGCAGGCUUCGGUGGCGCGAUAGCGCCAACGUCCUCAUCCUCCAAUGCAUCCCACCACAUGAUUAUGCCUGAAGAGCCUUGGUUUUUUG [G10A A84U G110U]	-1.93
GACCAAUCUACCCUCAGAGCUCGAGAACAUCUUCGGUUGCAGAGGACGCAGGCUUCGGUGGCGCGAUAGCGCCAACGUCCUCAACCUCCAAUGCAUCCCACCACAUGAUGACGCCUGAAGAGCCUUGGUUAUUUG [G10A A37U G47C U112C U131A]	-0.391

Variant	polymerase ribozyme fitness (log ratio)
GACCAAUCGGCCCUCAGAGCUCGAGAACAUCUUCGGAAGCAGAGGACGAAGGCUUCGGUGGCGCGAUAGCGCCAACGUCCUCAACCUCCAAUGCAUCCCACCACAUGAUGAUGCCUGAAGAGCCUUGGUUUUUUG [U9G U38A G47C C49A]	-3.06
GACCAAUCUACCCUCCGAGCUCGAGAACAUCUUCGGAUGCAGAGGAGGCGGGCUUCGGUGGCGCGAUAGCGCCAACGUCCUCAACCUCCAAUGCAUCCCAACACAUGAUGAUGCCUGAAGAGCCUUGGUUUUUUG [G10A A16C A50G C101A]	-2.99
GACCAAUCUACCCUCAGAGCUCGAGAGCAUCUUCGGAUGCAGAGGAGGCAGGCUUCGGUGGCGCGAUAGCACCAACGUCCUCAACUUCCAAUGCAUCCCACCACAUGAUGAUGCCUGAAGAGCCUUGGUUUUUUG [G10A A27G G71A C86U]	-3.87
GACCAAUCUACCCUCAGAGCUCGAGAACAUCUUCGGAUGCCGAGGAGGCAGACUUCGGUGGCGCGAUAGCGCCAACGUCCUCAACCUCCAAUGCAUCCCACCACAUGAUGAUGCCUGAAGAGCCUUGGUUUUUUG [G10A A41C G52A]	-1.27
GACCAAUCGGCCCUCAGAGCUCGAGAACAUCUUCGGAUGCAGAGGAGGCAGGCUUCGGUGGCGCGAUAGCGCCAACGUCCUCAACCGCCAAUGCAUCCCACCACAUGAUGAUGCCUGAAGAGCCUUGGUUUUUUG [U9G U87G]	0.583
GACCAAUCGGCCCUCAGAGCUCGAGAACAUCUUCGGAUGCAGAGGAGGCAGGCUUCGGUGGCGCGAUAGCGCCAACGUCCUCAACCCCCAAUGCAUCCCACCACAUGAUGAUGCCUGAAGAGCCUUGGUUUUUUG [U9G U87C]	-0.367
GACCAAUCGGCCCUCAGAGCUCGAGAACAUCUUCGGAUGCAGAGGAGGCAGUCUUCGGUGGCGCGAUAGGGCCAACGUCCUCAACCUCCAAUGCAUCCCACCACAUGAUGAUGCCUGAAGAACCUUGGUUUUUUG [U9G G52U C70G G122A]	-4.3
GACCAAUCGGCCCUCAGAGCUCGAGAACAUCUUCGGAUGCAGAGGAGGCAGGCUUCGGUGGCGCGAUAGCGCCAACGUCCUCAACCUCCAAGGCAUCCCACCACAUGAUGAUGCCUGAAGAGCCUUGGUUUUUUG [U9G U92G]	-1.92
GACCAAUCGGCCCUCAGAGCUCGAGAACAUCUUCGGAUGCAGAGGAGGCAGGCUUCGGUGGCUCGAUAGCGCCAACGUCCUCAACCUCCAAUGCAUCCCACCACAUGAUGAUGCCUGAACAGCCUUGGUUUUUUG [U9G G63U G120C]	0.237
GACCAAUCUACCCUCAGAGCUCGAGAACAUCUUCGGAUGCAGAGGAGGCAGGCUUCGGUGGCGCGAUGGCGCCAACGUCCUCAACCUCCAAUGCAUCCCACCACAUGAUGACGCCUGAAGAGCCUUGGUUUUUUG [G10A A68G U112C]	-1.25
GACCAAUCUACACUCAGAGCUCGAGAACAUCUUCGGAUGCAGAGGAGGCAGGCUUCGGUGGCGCGAUAGCGCCAACGUCCUCAACCUCCAAUGCAUCCCACAACAUGAUGAUGCCUGAAGAGCCUUGGUUUUUUG [G10A C12A C102A]	-2.74
GACCAAUCGGCCCUCAGAGCUCGAGAACAUCUUCGGAUGCAGAGGAGGCAGGCUUCGGUAGCGCGAUAGCGCCAACGUCCUCAACCUCCCAUGCAUCCCACCACAUGAUGAUGCCUGAAGAGCCUUGGUUUUUUG [U9G G60A A90C]	-0.347
GACCAAUCGGCCCUCAGAGCUCGAGAACAUCUUCGGAUGCAGAGGAGGCAGGCUUCUGUGGCGCGAUAGCGCCAACGUCCUCAACCUCCAAUGCAUCCCACCACAUGAUGAUGCCUGAAGAGCCUUGGUUUUUUG [U9G G57U]	-0.376
GACCAAUCGGCCCUCAGAGCUCGAGAACAUCUUCGGAUGCAGAGGAGGCAGGCUUCGGUGGCGCCAUACCGCCAACGUCCUCAACCUCCAAUGCAUCCCACCACAUGAUGAUGCCUGAAGAGCCUUGGUUUUUUG [U9G G65C G69C]	-5.37
GACCAAUCUACUCUCAGAGCUCGAGAACAUCUUCGUAUGCAGAGGAGGCAGGAUUCGGUGGCGCGAUAGCGCCAACGUCCUCAACCUCCAAUGCAUCCCACCACAUGAUGAUGCCUGAAGAGCCUUGGUUUUUUG [G10A C12U G36U C53A]	-0.13
GACCAAUCGGCCCUCAGAGCUCGAGAACAUCUUCGGAUGCAGAGGAGGCAGGCUACGGUGGCGCGAUAGCGCCAACGUCCUCAACCUCCAAUGCAUCCCACCACAUGAUGAUGCCUGAAGAGCCUUGGUUUUUUG [U9G U55A]	-0.0521
GACCAAUCGGCCCUCAGAGCUCGAGAACAUCUUCGGAUGCAGAGGAGUCAGGCUUCGGUGUCGCGAUAGCGCCAACGUCCUCAACCUCCAAUGCAUCCCACCACAUGAUGAUGCCUGAAGAGCCUUGGUUUUUUU [U9G G48U G61U G135U]	-1.68
GACCAAUCGGCCCUCAGAGCUCGAGAACAUCUUCGGAUGCAGAGGAGGCAGGCUUCGGUGGCGCGAUAGCGCCAACGUCCUCAACCUCCAAUGCAUCCCACCACAUGAUGAUGCCUAAAGAGCCUUGGUUUUUUG [U9G G117A]	0.595
GACCAAUCGGCCCUCAGAGCUCGAGAACAUCUUCGGAUGCAGAGGAGGCACGCUUCGGUGGCGCGAUAGCGCCAACGUCCUCAACCUCCAAUGCAUCCCACCACAUGAUGAUGCCUGAAGAGCCUUGGUUUUUUG [U9G G51C]	-3.27
GACCAAUCUACCCUCAGAGCUCGAGAACAUCUUCGGAUGCAGAGGAGGCGGGCUUCGGUGGCGCGAUAGCGCCAACGUCCUCAACCUCCAAUGCAUCCCACCACAUGAUGAUGCCUGAAGAGCCUUGGUUUUUUG [G10A A50G]	0.0587
GACCAAUCGGCCCUCAGAGCUCGAGAACAUCUUCGGAUGCAGAGGAGGCAGGCUUCAGUGGCGCGAUAGCGCCAACGACCUCAACCUCCAAUGCAUCCCCCCACAUGAUGAUGCCUGAAGAGCCUUGGUUUUUUG [U9G G57A U78A A100C]	-1.29
